Results from article PMC9734910.

Target: Bat37ACE2(18–740) (Pipistrellus pipistrellus (Bat37))
Assay: […]; 20 mM HEPES, 100 mM NaCl, pH 7.5

Bat37ACE2(18–740) (domain or fragment) gave a stoichiometry N of 2.
